B1: 167 (protein)
chain: STAIAQEGAAPAAILHPEKWPRPATQRLIDPAVEKRVDALLKQLSVEEKVGQVIQGDIGTITPEDLRKYPLGSILAGGDSGPNGDDRAPPKEWLDLADAFYRVSLEKRPGHTPIPVLFGIDAVHGHGKIGSATIFPHNIALGATRDPELLRRIGEVTAVEMAATGIDWTFAPALSVVRDDRWGRTYEGFSEDPEIVAAYSAAIVEGVQGKFGSKDFMAPGRIVASAKHFLADGGTDQGRDQGDARISEDELIRIHNAGYPPAIDAGVLTVMASFSSWQGIKHHGHKQLLTDVLKGQMGFNGFIVGDWNAHDQVPGCTKFNCPTSLIAGLDMYMAADSWKQLYENTLAQVKDGTIPMARLDDAVRRILRVKVLAGLFEKPAPKDRPGLPGLETLGSPEHRAVGREAVRKSLVLLKNDKGTLPLSPKARVLVAGDGADNIGKQSGGWTISWQGTGNRNDEFPGATSILGGIRDAVADAGGSVEFDVAGQYKTKPDVAIVVFGEEPYAEFQGDVETLEYQPDQKQDLALLKKLKDQGIPVVAVFLSGRPMWVNPELNASDAFVAAWLPGTEGGGVADVLFTDKAGKVQHDFAGKLSYSWPRTAAQTTVNRGDADYNPLFAYGYGLTYKDKSKVGTLPEESGVPAEARQNAGIYFRAGALRLPGRFL
B2: 78 (protein)
chain: STAIAQEGAAPAAILHPEKWPRPATQRLIDPAVEKRVDALLKQLSVEEKVGQVIQGDIGTITPEDLRKYPLGSILAGGNSGPNGDDRAPPKEWLDLADAFYRVSLEKRPGHTPIPVLFGIDAVHGHGNIGSATIFPHNIALGATRDPELLRRIGEVTAVEMAATGIDWTFAPALSVVRDDRWGRTYEGFSEDPEIVAAYSAAIVEGVQGKFGSKDFMAPGRIVACAKHFLADGGTDQGRDQGDARISEDELIRIHNAGYPPAIDAGVLTVMASFSSWQGIKHHGHKQLLTDVLKGQMGFNGFIVGDWNAHDQVPGCTKFNCPTSLIAGLDMYMAADSWKQLYENTLAQVKDGTIPMARLDDAVRRILRVKVLAGLFEKPAPKDRPGLPGLETLGSPEHRAVGREAVRKSLVLLKNDKGTLPLSPKARVLVAGDGADNIGKQSGGWTISWQGTGNRNDEFPGATSILGGIRDAVADAGGSVEFDVAGQYKTKPDVAIVVFGEEPYAEFQGDVETLEYQPDQKQDLALLKKLKDQGIPVVAVFLSGRPMWVNPELNASDAFVAAWLPGTEGGGVADVLFTDKAGKVQHDFAGKLSYSWPRTAAQTTVNRGDADYNPLFAYGYGLTYKDKSKVGTLPEESGVPAEARQNAGIYFRAGALRLPGRFL
B3: 170 (protein)
chain: STAIAQEGAAPAAILHPEKWPRPATQRLIDPAVEKRVDALLKQLSVEEKVGQVIQGDIGTITPEDLRKYPLGSILAGGNSGPNGDDRAPPKEWLDLADAFYRVSLEKRPGHTPIPVLFGIDAVHGHGKIGSATIFPHNIALGATRSPELLRRIGEVTAEEMAATGIDWTFAPALSVVRDDRWGRTYEGFSEDPEIVAAYSPAIVEGVQGKYGSKDFMAPGRIVACAKHFLADGGTDQGRDQGDARISEDELIRIHNAGYPPAIDAGVLTVMASFSSWQGIKHHGHKQLLTDVLKGQMGFNGFIVGDWNAHDQVPGCTKFNCPTSLIAGLDMYMAADSWKQLYENTLAQVKDGTIPMARLDDAVRRILRVKVLAGLFEKPAPKDRPGLPGLETLGSPEHRAVGREAVRKSLVLLKNDKGTLPLSPKARVLVAGDGADNIGKQSGGWTISWQGTGNRNDEFPGATSILGGIRDAVADAGGSVEFDVAGQYKTKPDVAIVVFGEEPYAEFQGDVETLEYQPDQKQDLALLKKLKDQGIPVVAVFLSGRPMWVNPELNASDAFVAAWLPGTEGGGVVDVLFTDKAGKVQHDFAGKLSYSWPRTAAQTTVNRGDADYNPLFAYGYGLTYKDKSKVGTLPEESGVPAEARQNAGIYFRAGALRLPGRFL
B4: 168 (protein)
chain: STAIAQEGAAPAAILHPEKWPRPATQRLIDPAVEKRVDALLKQLSVEEKVGQVIQGDIGTITPEDLRKYPLGSILAGGNSGPNGDDRAPPKEWLDLADAFYRVSLEKRPGHTPIPVLFGIDAVHGHGKIGSATIFPHNIALGATRDPELLRRIGEVTAQEMAATGIDWTFAPALSVVRDDRWGRTYEGFSEDPEIVAAYSPAIVEGVQGKYGSKDFMAPGRSVACAKHFLADGGTDQGRDQGDARISEDELIRIHNAGYPPAIDAGVLTVMASFSSWQGIKHHGHKQLLTDVLKGQMGFNGFIVGDWNAHDQVPGCTKFNCPTSLIAGLDMYMAADSWKQLYENTLAQVKDGTIPMARLDDAVRRILRVKVLAGLFEKPAPKDRPGLPGLETLGSPEHRAVGREAVRKSLVLLKNDKGTLPLSPKARVLVAGDGADNIGKQSGGWTISWQGTGNRNDEFPGATSILGGIRDAVADAGGSVEFDVAGQYKTKPDVAIVVFGEEPYAEFQGDVETLEYQPDQKQDLALLKKLKDQGIPVVAVFLSGRPMWVNPELNASDAFVAAWLPGTEGGGVADVLFTDKAGKVQHDFAGKLSYSWPRTAAQTTVNRGDADYNPLFAYGYGLTYKDKSKVGTLPEESGVPAEARQNAGIYFRAGALRLPGRFL
B5: 169 (protein)
chain: STAIAQEGAAPAAILHPEKWPRPATQRLIDPAVEKRVDALLKQLSVEEKVGQVIQGDIGTITPEDLRKYPLGSILAGGDSGPNGDDRAPPKEWLDLADAFYRVSLEKRPGHTPIPVLFGIDAVHGHGNIGSATIFPHNIALGATRDPELLRRIGEVTAQEMTATGIDWTFAPALSVVRDDRWGRTYEGFSEDPEIVAAYSPAIVEGVQGKYGSKDFMAPGRIVACAKHFLADGGTDQGRDQGDARISEDELIRIHNAGYPPAIDAGVLTVMASFSSWQGIKHHGHKQLLTDVLKGQMGFNGFIVGDWNAHDQVPGCTKFNCPTSLIAGLDMYMAADSWKQLYENTLAQVKDGTIPMARLDDAVRRILRVKVLAGLFEKPAPKDRPGLPGLETLGSPEHRAVGREAVRKSLVLLKNDKGTLPLSPKARVLVAGDGADNIGKQSGGWTISWQGTGNRNDEFPGATSILGGIRDAVADAGGSVEFDVAGQYKTKPDVAIVVFGEEPYAEFQGDVETLEYQPDQKQDLALLKKLKDQGIPVVAVFLSGRPMWVNPELNASDAFVAAWLPGTEGGGVADVLFTDKAGKVQHDFAGKLSYSWPRTAAQTTVNRGDADYNPLFAYGYGLTYKDKSKVGTLPEESGVPAEARQNAGIYFRAGALRLPGRFL
B6: 171 (protein)
chain: STAIAQEGAAPAAILHPEKWPRPATQRLIDPAVEKRVDALLKQLSVEEKVGQVIQGDIGTITPEDLRKYPLGSILAGGDSGPNGDDRAPPKEWLDLADAFYRVSLEKRPGHTPIPVLFGIDAVHGHGNIGSATIFPHNIALGATRDPELLRRIGEVTAEEMAATGIDWTFAPALSVVRDDRWGRTYEGFSEDPEIVASYSAAIVEGVQGKYGSKDFMAVGRIVASAKHFLADGGTDQGRDQGDARISEDELIRIHNAGYPPAIDAGVLTVMASFSSWQGIKHHGHKQLLTDVLKGQMGFNGFIVGDWNAHDQVPGCTKFNCPTSLIAGLDMYMAADSWKQLYENTLAQVKDGTIPMARLDDAVRRILRVKVLAGLFEKPAPKDRPGLPGLETLGSPEHRAVGREAVRKSLVLLKNDKGTLPLSPKARVLVAGDGADNIGKQSGGWTISWQGTGNRNDEFPGATSILGGIRDAVADAGGSVEFDVAGQYKTKPDVAIVVFGEEPYAEFQGDVETLEYQPDQKQDLALLKKLKDQGIPVVAVFLSGRPMWVNPELNASDAFVAAWLPGTEGGGVADVLFTDKAGKVQHDFAGKLSYSWPRTAAQTTVNRGDADYNPLFAYGYGLTYKDKSKVGTLPEESGVPAEARQNAGIYFRAGALRLPGRFL

This data set is described as follows: High throughput cellobiose assay: fold improvement in cellobiase activity of CelA variants over a control enzyme (Tables 2A-2D, 3, 5, 6, 7). The settings on record: 3.3 g/l cellobiose, 55° C. and pH 6.0. The class given is biochemical.
Turning to B1, the “Fold improvement over Control Variant No. 5 from Table 2A” value was “++ (++ = 1.1 to 6 fold improvement over control Variant No. 2)”.
As for B2, the entry is “++ (++ = 1.1 to 6 fold improvement over control Variant No. 2)”.
On to B3, for which the “Fold improvement over Control Variant No. 5 from Table 2A” value is “++ (++ = 1.1 to 6 fold improvement over control Variant No. 2)”.
As for B4, the entry is “+++ (+++ = 6 to 13 fold improvement over control Variant No. 2)”.
On to B5, for which the “Fold improvement over Control Variant No. 5 from Table 2A” value is listed as “+++ (+++ = 6 to 13 fold improvement over control Variant No. 2)”.
Take B6: the “Fold improvement over Control Variant No. 5 from Table 2A” value is listed as “+++ (+++ = 6 to 13 fold improvement over control Variant No. 2)”.

The values are drawn from patent US8357523B2, “Beta-glucosidase variant enzymes and related polynucleotides” (Codexis, Inc., priority 2009, dated 2013).
